# Test results: doi:10.1101/2022.01.26.477835 (bioRxiv, 2022)
# B1: GST-tagged C-terminus of TRPM8 (GST-M8C) (domain or fragment, rat, UniProt Q8R455 980-1104, looked up)
# chain: GYTVGIVQENNDQVWKFQRYFLVQEYCNRLNIPFPFVVFAYFYMVVKKCFKCCCKEKNTESSACCFRNEDNETLAWEGVMKENYLVKINTKANDNAEEMRHRFRQLDTKLNDLKGLLKEIANKIK
# Target: His fused LCK (His-LCK) (human, UniProt P06239 1-509)
# Assay: pull-down
# His fused LCK (His-LCK), sequence (P06239 whole entry, the tested form may be a part): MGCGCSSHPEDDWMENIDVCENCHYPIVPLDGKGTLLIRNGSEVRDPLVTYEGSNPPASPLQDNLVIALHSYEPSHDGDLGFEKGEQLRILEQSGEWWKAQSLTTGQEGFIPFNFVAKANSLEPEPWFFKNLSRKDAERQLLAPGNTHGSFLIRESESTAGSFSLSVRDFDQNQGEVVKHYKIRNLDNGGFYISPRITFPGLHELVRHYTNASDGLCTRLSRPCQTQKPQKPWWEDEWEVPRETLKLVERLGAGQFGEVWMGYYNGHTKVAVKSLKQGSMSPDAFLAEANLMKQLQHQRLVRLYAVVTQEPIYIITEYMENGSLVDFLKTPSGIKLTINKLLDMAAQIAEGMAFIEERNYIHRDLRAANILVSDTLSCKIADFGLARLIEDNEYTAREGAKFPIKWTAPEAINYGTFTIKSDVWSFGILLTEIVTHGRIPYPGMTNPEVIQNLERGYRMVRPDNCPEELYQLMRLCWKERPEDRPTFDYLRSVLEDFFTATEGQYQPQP
binder,measurement,value
B1,binding result,binds
